Test results published in patent US5770702, “Fibronectin binding protein as well as its preparation” (dated 1998).

Target: Human fibronectin (intact) (human, UniProt P02751-8, 125I-labelled in the cell binding assays; coupled to Sepharose in the affinity chromatography)
Test: inhibition of labelled fibronectin binding to S. aureus cells

B1: 165 kD fibronectin binding protein (FNBP) isolated from E. coli pFR001 (receptor)
chain: ASEQKTTTVEENGNSATDNKTSETQTTATNVNHIEETQSYNATVTEQPSNATQVTTEEAPKAVQAPQTAQPANIETVKEEVVKEEAKPQVKETTQSQDNSGDQRQVDLTPKKATQNQVAETQVEVAQPRTASESKPRVTRSADVAEAKEASNAKVETGTDVTSKVTVEIGSIEGHNNTNKVEPHAGQRAVLKYKLKFENGLHQGDYFDFTLSNNVNTHGVSTARKVPEIKNGSVVMATGEVLEGGKIRYTFTNDIEDKVDVTAELEINLFIDPKTVQTNGNQTITSTLNEEQTSKELDVKYKDGIGNYYANLNGSIETFNKANNRFSHVAFIKPNNGKTTSVTVTGTLMKGSNQNGNQPKVRIFEYLGNNEDIAKSVYANTTDTSKFKEVTSNMSGNLNLQNNGSYSLNIENLDKTYVVHYDGEYLNGTDEVDFRTQMVGHPEQLYKYYYDRGYTLTWDNGLVLYSNKANGNEKNGPIIQNNKFEYKEDTIKETLTGQYDKNLVTTVEEEYDSSTLDIDYHTAIDGGGGYVDGYIETIEETDSSAIDIDYHTAVDSEAGHVGGYTESSEESNPIDFEESTHENSKHHADVVEYEEDTNPGGGQVTTESNLVEFDEESTKGIVTGAVSDHTTVEDTKEYTTESNLIELVDELPEEHGQAQGPVEEITKNNHHISHSGLGTENGHGNYDVIEEIEENSHVDIKSELGYEGGQNSGNQSFEEDTEEDKPKYEQGGNIVDIDFDSVPQIHGQNKGNQSFEEDTEKDKPKYEHGGNIIDIDFDSVPHIHGFNKHTEIIEEDTNKDKPSYQFGGHNSVDFEEDTLPKVSGQNEGQQTIEEDTTPPIVPPTPPTPEVPSEPETPTPPTPEVPSEPETPTPPTPEVPSEPETPTPPTPEVPAEPGKPVPPAKEEPKKPSKPVEQGKVVTPVIEINEKVKAVAPTKKPQSKKSELPETGGEESTNKGMLFGGLFSILGLALLRRNKKNHKA
In the case of B1, the “fold more active than the 87 kD protein on a molar basis” value is reported as 30 times.
